{"source": "paper PMC7672080", "key": {"[1]": {"molecular_target": "mCherry-tagged neuroligin-1 (UniProt Q99K10)", "sequence (Q99K10 46-843)": "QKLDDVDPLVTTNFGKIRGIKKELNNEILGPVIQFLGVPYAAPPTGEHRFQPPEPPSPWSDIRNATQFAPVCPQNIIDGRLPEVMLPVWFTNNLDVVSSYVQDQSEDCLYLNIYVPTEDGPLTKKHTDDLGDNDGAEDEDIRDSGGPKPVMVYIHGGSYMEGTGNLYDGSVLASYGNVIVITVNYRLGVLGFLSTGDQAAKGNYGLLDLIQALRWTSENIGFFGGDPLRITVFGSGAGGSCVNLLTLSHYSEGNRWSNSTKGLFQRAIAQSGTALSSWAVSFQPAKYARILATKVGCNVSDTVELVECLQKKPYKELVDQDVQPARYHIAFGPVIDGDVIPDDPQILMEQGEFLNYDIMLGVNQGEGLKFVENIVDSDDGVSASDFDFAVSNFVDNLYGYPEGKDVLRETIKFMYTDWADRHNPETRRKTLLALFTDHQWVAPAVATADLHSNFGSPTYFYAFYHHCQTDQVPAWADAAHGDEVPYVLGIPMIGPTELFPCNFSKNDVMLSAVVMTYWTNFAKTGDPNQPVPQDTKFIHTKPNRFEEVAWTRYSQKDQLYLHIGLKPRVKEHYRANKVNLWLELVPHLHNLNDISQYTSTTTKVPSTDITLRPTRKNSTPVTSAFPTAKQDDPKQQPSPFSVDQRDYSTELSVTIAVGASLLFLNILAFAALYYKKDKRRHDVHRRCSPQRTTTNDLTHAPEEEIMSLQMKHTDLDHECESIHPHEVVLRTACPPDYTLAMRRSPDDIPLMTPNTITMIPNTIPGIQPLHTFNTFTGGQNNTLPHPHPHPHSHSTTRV"}, "[2]": {"molecular_target": "mCherry-tagged neuroligin-1 (UniProt Q99K10)", "remark": "listed apart in the source"}}, "data": [{"substance": "GFP-tagged neurexin-1β (from UniProt Q63373 47-468) (receptor)", "values": [{"measurement": "enrichment of GFP-Nrx1β at cell–cell contacts between co-cultured COS-7 cells expressing GFP-Nrx1β and cells expressing Nlg1-mCherry (fluorescence microscopy)", "setting": "[1]", "result": 3.9}, {"measurement": "diffusion coefficient of single GFP-Nrx1β molecules inside the contact with a cell expressing Nlg1-mCherry (uPAINT single particle tracking at 50 Hz; Dout = 0.3 µm^2/s outside the contact)", "setting": "[2]", "result": 0.04, "unit": "µm^2/s"}]}]}
